Measurements: paper PMC2408619, “Selective Ligand Recognition by a Diversity-Generating Retroelement Variable Protein” (PLoS Biology, 2008)

T1: Biotinylated Prn-E (pertactin residues 38-640 with N-terminal biotinylation sequence) (B. bronchiseptica, UniProt Q03035 38-640, biotin (in vivo biotinylation of the N-terminal biotinylation sequence))
T1 construct: Pertactin of B. bronchiseptica, ectodomain residues 38-640; also called immobilized pertactin
T1 sequence: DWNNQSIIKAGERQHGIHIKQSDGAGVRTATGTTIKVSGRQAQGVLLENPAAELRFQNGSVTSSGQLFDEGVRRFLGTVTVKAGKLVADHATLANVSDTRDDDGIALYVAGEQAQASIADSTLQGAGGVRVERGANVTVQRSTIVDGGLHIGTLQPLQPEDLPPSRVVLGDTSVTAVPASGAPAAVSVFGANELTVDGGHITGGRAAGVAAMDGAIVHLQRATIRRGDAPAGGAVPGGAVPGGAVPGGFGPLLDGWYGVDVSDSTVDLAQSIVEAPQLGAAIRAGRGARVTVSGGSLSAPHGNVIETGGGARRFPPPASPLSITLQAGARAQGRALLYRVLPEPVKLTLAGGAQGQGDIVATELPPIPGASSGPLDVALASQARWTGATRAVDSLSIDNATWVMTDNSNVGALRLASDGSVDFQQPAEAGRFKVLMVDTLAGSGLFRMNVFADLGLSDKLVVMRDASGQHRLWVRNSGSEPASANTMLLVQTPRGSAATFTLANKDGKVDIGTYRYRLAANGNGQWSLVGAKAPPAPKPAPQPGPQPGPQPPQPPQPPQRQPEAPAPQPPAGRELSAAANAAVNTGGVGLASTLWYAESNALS

T2: His-tagged ectodomain of B. bronchiseptica pertactin (Prn-E; residues 38-640) (B. bronchiseptica, UniProt Q03035 38-640)
T2 construct: Pertactin of B. bronchiseptica, 60 kDa ectodomain, residues 38-640 of the 93 kDa precursor; the loop deletion mutants carry an N-terminal His tag from pET28b; also called wild-type Prn-E; His-tagged Prn-E
T2 sequence: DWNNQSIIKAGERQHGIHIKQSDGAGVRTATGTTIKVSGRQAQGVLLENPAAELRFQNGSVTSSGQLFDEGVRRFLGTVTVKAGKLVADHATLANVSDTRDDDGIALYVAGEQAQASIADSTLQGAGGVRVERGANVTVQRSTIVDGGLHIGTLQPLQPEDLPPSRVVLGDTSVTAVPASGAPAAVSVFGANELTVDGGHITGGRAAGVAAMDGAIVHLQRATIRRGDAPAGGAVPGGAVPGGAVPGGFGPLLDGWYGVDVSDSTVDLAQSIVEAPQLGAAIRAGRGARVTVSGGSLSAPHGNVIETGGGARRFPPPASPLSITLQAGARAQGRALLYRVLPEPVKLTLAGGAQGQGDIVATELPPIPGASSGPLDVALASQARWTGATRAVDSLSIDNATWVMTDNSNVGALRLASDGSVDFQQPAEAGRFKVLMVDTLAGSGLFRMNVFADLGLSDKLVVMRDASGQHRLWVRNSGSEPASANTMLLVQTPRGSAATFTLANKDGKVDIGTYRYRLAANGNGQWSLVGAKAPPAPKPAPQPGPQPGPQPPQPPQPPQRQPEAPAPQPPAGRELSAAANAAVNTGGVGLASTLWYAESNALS


Tests used:
[1] = target: T1, Biotinylated Prn-E (pertactin residues …); experiment: SPR; Biacore 3000, 25 °C; ~100 RU biotinylated Prn-E on a streptavidin chip; Mtd proteins injected in 150 mM NaCl, 50 mM Tris pH 8.0, 0.005% Tween 20 at 30 μl/min; single-site model, global fit, six concentrations, duplicate; details: both partners purified
[2] = target: T2, His-tagged ectodomain of B. …; experiment: crystal structure; Mtd-P1·Prn-E complex formed with ~1.6-fold molar excess of Mtd-P1 trimers over His-tagged Prn-E, isolated by Ni2+-chelation and Superdex 200; crystals at 25 °C in 2 M NaCl, 100 mM Tris pH 8.5, 200 mM Li2SO4; 3.16 Å; details: both partners purified
[3] = target: T1, Biotinylated Prn-E (pertactin residues …); experiment: SPR; Biacore 3000, 25 °C; ~100 RU biotinylated Prn-E on a streptavidin chip; whole phage injected (BPP-1 ~1.2-3.7 × 10^-15 M, BPP-6 ~1-2 × 10^-16 M, BIP-1 8.3 × 10^-16 to 8.3 × 10^-15 M, BMP-1 e.g. 3.68 × 10^-15 M); multivalent; single-site model, global fit; details: one partner purified

Row | Binder | Kd [1] [nM] | kon [1] [M⁻¹ s⁻¹] | stoichiometry N [2] | Kd [3] [nM]
1 | Bordetella bacteriophage major tropism determinant variant Mtd-P1 (natural protein, Major tropism determinant (Mtd), variant P1, expressed by Bordetella bacteriophage BPP-1; Mtd has 381 residues in total; trimer of 120 kDa) MSTAVQFRGGTTAQHATFTGAAREITVDTDKNTVVVHDGATAGGFPLARHDLVKTAFIKADKSAVAFTRTGNATASIKAGTIVEVNGKLVQFTADTAITMPALTAGTDYAIYVCDDGTVRADSNFSAPTGYTSTTARKVGGFHYAPGSNAAAQAGGNTTAQINEYSLWDIKFRPAALDPRGMTLVAGAFWADIYLLGVNHLTDGTSKYNVTIADGSASPKKSTKFGGDGSAAYSDGAWYNFAEVMTHHGKRLPNYNEFQALAFGTTEATSSGGTDVPTTGVNGTGATSAWNIFTSKWGVVQASGCLWTWGNEFGGVNGASEYTANTGGRGSVYAQPAAALFGGAWNGTSLSGSRAALWYSGPSFSFAFFGARGVCDHLILE | 3470 ± 130 | ~10000 | 3 Mtd-P1 protomers per Prn-E | 
2 | BPP-1 phage displaying Mtd-P1 (other, Major tropism determinant (Mtd), variant P1, at the ends of the tail fibers of whole BPP-1 phage; 381 residues; Whole phage particle; The other phage proteins are not written; also called BPP-1(Δbrt); source: phage harvested from B. bronchiseptica RB50 cultures, concentrated by centrifugation and ultrafiltration) MSTAVQFRGGTTAQHATFTGAAREITVDTDKNTVVVHDGATAGGFPLARHDLVKTAFIKADKSAVAFTRTGNATASIKAGTIVEVNGKLVQFTADTAITMPALTAGTDYAIYVCDDGTVRADSNFSAPTGYTSTTARKVGGFHYAPGSNAAAQAGGNTTAQINEYSLWDIKFRPAALDPRGMTLVAGAFWADIYLLGVNHLTDGTSKYNVTIADGSASPKKSTKFGGDGSAAYSDGAWYNFAEVMTHHGKRLPNYNEFQALAFGTTEATSSGGTDVPTTGVNGTGATSAWNIFTSKWGVVQASGCLWTWGNEFGGVNGASEYTANTGGRGSVYAQPAAALFGGAWNGTSLSGSRAALWYSGPSFSFAFFGARGVCDHLILE |  |  |  | 0.00689 ± 0.00177
